Test results from patent US10653749B2, “Targeting GIV-GEF-GI signaling for treating diverse diseases” (The Regents of the University of California, priority 2015, dated 2020).
“Also recorded” adds a separate entry of the source.

Assays:
[1] = target: T1, GST-Gαi3 (GDP loaded) (Rattus norvegicus, UniProt P08753); experiment: In vitro GST pulldown of TAT-GIV-CT proteins with GST-Gαi3; type: binding; conditions: 3 μg TAT protein, 4 h at 4° C., immunoblot with His mAb
T1 construct: made in house; host or cells: E. coli BL21(DE3)
T1 sequence (P08753 whole entry): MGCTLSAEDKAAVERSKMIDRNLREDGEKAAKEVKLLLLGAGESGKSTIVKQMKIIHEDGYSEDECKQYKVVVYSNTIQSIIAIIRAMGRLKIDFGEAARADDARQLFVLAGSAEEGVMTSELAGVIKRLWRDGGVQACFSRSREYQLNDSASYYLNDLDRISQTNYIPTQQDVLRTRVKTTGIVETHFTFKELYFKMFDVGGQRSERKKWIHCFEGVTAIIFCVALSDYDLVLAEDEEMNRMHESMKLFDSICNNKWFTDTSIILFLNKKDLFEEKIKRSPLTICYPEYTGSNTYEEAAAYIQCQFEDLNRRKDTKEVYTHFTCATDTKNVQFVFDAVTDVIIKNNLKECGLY
Procedure: Purified GST-Gαi3 or GST alone (5 μg) were immobilized on glutathione-Sepharose beads and incubated with binding buffer [50 mM Tris-HCl (pH 7.4), 100 mM NaCl, 0.4% (vol:vol) Nonidet P-40, 10 mM MgCl2, 5 mM EDTA, 30 μM GDP, 2 mM DTT, protease inhibitor mixture] for 90 min at room temperature as described (49, 50, 52, 54). TAT-GIV-CT (amino acids 1,660-1,870) proteins (3 μg) were added to each tube, and binding reactions were carried out for 4 h at 4° C. with constant tumbling. Beads were washed (four times) with 1 mL of wash buffer [4.3 mM Na2HPO4, 1.4 mM KH2PO4 (pH 7.4), 137 mM NaCl, 2.7 mM KCl, 0.1% (vol:vol) Tween 20, 10 mM MgCl2, 5 mM EDTA, 30 μM GDP, 2 mM DTT] and reduced in Laemmli's sample buffer at 37° C. Immunoblot analysis was performed by infrared imaging following the manufacturer's protocols using an Odyssey imaging system (Li-Cor Biosciences).

[2] = system: EGFR autophosphorylation and Akt signaling; experiment: EGF signaling in TAT-transduced HeLa cells by immunoblotting; type: cell-based; conditions: 50 nM EGF; for EGFR autophosphorylation: pY1068
Procedure: For immunoblotting, protein samples were separated by SDS/PAGE and transferred to PVDF membranes (Millipore). Membranes were blocked with PBS supplemented with 5% nonfat milk (or with 5% BSA when probing for phosphorylated proteins) before incubation with primary antibodies. Infrared imaging with two-color detection and quantification were performed using a Li-Cor Odyssey imaging system (50, 52, 53). Primary antibodies were diluted as follows: anti-His 1:1,000; anti-GIV/Girdin (T-13) 1:500; antiphospho EGFR 1068 (1:1000); anti-phospho-Akt (Ser473) 1:250; anti-Akt 1:500; anti-Gαi3 1:333; anti-pan-GP 1:250; anti-α tubulin 1: 2,000. All Odyssey images were processed using Image J software (NIH) and assembled for presentation using Photoshop and Illustrator software (Adobe).
For TAT-protein transduction, cells were incubated with 400-800 nM of the TAT-proteins for 30 min at 37° C. prior to three washes with PBS and addition of fresh growth media. For analysis of EGF signaling, subconfluent monolayers of HeLa cells were treated with TAT proteins for 30 min, washed with PBS, and subsequently stimulated with EGF (50 nM) at 4 h after TAT transduction. For scratch-wound assays, HeLa monolayers were treated with TAT proteins before and at 12 h after wounding. For cancer cell invasion assays, highly invasive MDA MB 231 breast cancer cells were plated in 6-well dishes, treated with TAT-peptides for 30 min and subsequently lifted and placed in transwell chamber in the presence of serum-free media. For L×2 myofibroblast activation assays, cells were first treated with TAT-proteins for 30 min, starved in serum-free media, and subsequently treated with 1.5 ng/ml TGF-β for 24 h. TAT-protein transduction was repeated every 8 h during the course of TGFβ stimulation (total 3 treatments). For assays involving insulin stimulation of TAT-treated L6 myotubes, such stimulation was carried out 90 min after transduction. In each case, whole cell lysates prepared from cells in duplicate wells were analyzed for signaling pathways and TAT-protein uptake by immunoblotting.

[3] = system: L6 myotubes; experiment: Fluorometric 2-deoxyglucose uptake assay after insulin stimulation; type: cell-based, rat; conditions: for insulin-stimulated glucose uptake in the basal state: L6 myotubes without PA; for reversal of PA-induced IR (insulin stimulated glucose uptake): PA-treated L6 myotubes
Procedure: Transfection was carried out with GeneJuice (Novagen) for DNA plasmids or Oligofectamine (Invitrogen) for siRNA oligos according to manufacturer's protocols. Silencer negative Control scrambled (Scr) siRNA used as control was purchased from Ambion and the previously validated (Enomoto et al., 2005) GIV siRNA sequence used was custom-ordered from Dharmacon. For TAT-construct transduction, cells were incubated with 300-800 nM of the TAT-proteins for 30 min at 37° C. prior to three washes with PBS and addition of fresh growth media. For assays involving insulin (Novagen) stimulation of TAT-treated cells, such stimulation was carried out 90 min after transduction.
Unless otherwise indicated, serum starvation of cells for use in experiments involving insulin stimulation was carried out by growing cells overnight in the presence of no serum (i.e., 0% FBS) in the case of Cos7 and L6 cells, or in the presence of 0.2% FBS in the case of HeLa cells. To induce IR, cells were pre-treated with Sodium Palmitate (PA; Sigma-Aldrich) (0.5 mM, stock solution at 5 mM/5% FFA-free BSA in ethanol) or vehicle control (5% FFA-free BSA in ethanol) for 16 h. To reverse IR with TZDs, cells were treated with 50 μM Pioglitazone (Pio) (Sigma-Aldrich) or DMSO (vehicle control) for 18 h prior to stimulation with 100 nM insulin. Treatment with PKCθ pseudo-substrate inhibitor (Santa Cruz Biotechnologies) was performed at 10 μM for 16 h.
Glucose uptake assays were performed without the use of radioisotopes as described previously (Yamamoto et al., 2006). HeLa and L6 cells grown in 6-well plates were stimulated with insulin in KRH Buffer [50 mM HEPES, 137 mM NaCl, 4.7 mM KCl, 1.85 mM CaCl2, 1.3 mM MgSO4, and 0.1% (w/v) BSA-FFA free, pH 7.4]. Cells were incubated with 1 mM 2-deoxyglucose (2-DG) for 20 min, washed, and subsequently lysed with 0.1 N NaOH. The lysates were transferred into eppendorf tubes and samples were incubated in a water bath maintained at 80° C. for 45 min to degrade endogenous NAD(P)H and NAD(P)^+. An equal volume each of 0.1 N HCl and Triethanolamine (200 mM TEA, pH 8.1) buffer were added to each tube. Samples were subsequently mixed with assay solution [50 mM TEA, 0.02% BSA-FFA free, 10 μM NAD(P)^+, 0.2 U/ml Diaphorase, 6 nM Resazurin sodium, 15 U/ml G6PDH (Santa Cruz Biotechnologies)] and incubated at 37° C. for 90 min. Fluorescence intensity (λex=550 nM, λem=590 nM) was determined using a Tecan Inifinite M1000 PRO and normalized to total protein, as determined using BCA assay (Thermo Scientific).

[4] = system: HeLa cells; experiment: Scratch-wound 2D cell migration assay; type: cell-based; conditions: lysates 6 h post-wounding

Molecule	Binding to GDP-loaded GST-Gαi3 in pulldown [1]	Binding to GDP-loaded GST-Gαi3 in pulldown ([1]; listed as WT)	Akt signaling (phosphorylation at Ser 473) [2]	EGFR autophosphorylation [2]	insulin-stimulated glucose uptake in the basal state [3]	reversal of PA-induced IR (insulin stimulated glucose uptake) [3]	reversal of PA-induced IR (insulin stimulated glucose uptake) ([3]; listed as GIV-CT-WT)	effectiveness in reversing PA-induced IR compared with Pio ([3]; ~800 nM of WT peptide)	Akt activation during 2D cell migration [4]	EGFR autophosphorylation during 2D cell migration [4]	Akt activation during 2D cell migration ([4]; listed as WT)	EGFR autophosphorylation during 2D cell migration ([4]; listed as WT)	Binding to GDP-loaded GST-Gαi3 in pulldown ([1]; listed as FA)
TAT-GIV-CT-WT: Recombinant cell-permeable fusion of TAT-PTD, His and HA tags, linker and human GIV C-terminus (aa 1660-1870), wild type; SEQ ID NO: 2 (protein) MRGSHHHHHHGMASMTGGQQMGRDLYDDDDKDRWGSKLGYGRKKRRQRRRGGSTMSGYPYDVPDYAGSMGGSGHSGETLESRHHKIKTGSPGSEVVTLQQFLEESNKLTSVQIKSSSQENLLDEVMKSLSVSSDFLGKDKPVSCGLARSVSGKTPGDFYDRRTTKPEFLRPGPRKTEDTYFISSAGKPTPGTQGKIKLVKESSLSRQSKDSNPYATLPRASSVISTAEGTTRRTSIHDFLTKDSRLPISVDSPPAAADSNTTAASNVDKVQESRNSKSRSREQQSS	bound	binds	enhances	enhances	unaffected	effectively reverse	effectively reversed	as effective as 50 μM Pio	enhances	enhances	enhanced	enhanced	
TAT-GIV-CT-FA: GEF-deficient F1685A mutant of the TAT-GIV-CT peptide, dominant-negative; SEQ ID NO: 3 (protein) MRGSHHHHHHGMASMTGGQQMGRDLYDDDDKDRWGSKLGYGRKKRRQRRRGGSTMSGYPYDVPDYAGSMGGSGHSGETLESRHHKIKTGSPGSEVVTLQQALEESNKLTSVQIKSSSQENLLDEVMKSLSVSSDFLGKDKPVSCGLARSVSGKTPGDFYDRRTTKPEFLRPGPRKTEDTYFISSAGKPTPGTQGKIKLVKESSLSRQSKDSNPYATLPRASSVISTAEGTTRRTSIHDFLTKDSRLPISVDSPPAAADSNTTAASNVDKVQESRNSKSRSREQQSS	did not bind		inhibited; also recorded: suppresses	inhibited; also recorded: suppresses	significantly inhibited	not			not	not			not
